Laboratory results as given in publication doi:10.1101/2023.10.23.563578.

Molecular target: recombinant Ena3A (major subunit of L-ENA fibers) (Bacillus paranthracis NVH 0075-95)
Experiment: cryo-EM structure

With “recombinant Ena3A (major subunit of L-ENA fibers) (natural protein)” the stoichiometry N was 7.
